Data published in the supplement of paper PMC10567573.

B1: PLAGL1 (parent)
chain: CKDFLCQFCAQRFGRKDHLTRHTK
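Further: lentivirally expressed fusions sorted by FACS into six bins by GFP to DsRed ratio, PSI derived from sequencing read proportions per bin multiplied by bin number.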

Variants of: B1
Assay: protein stability index of a GFP-peptide fusion (GPS, HEK-293T) (PSI 1-6); higher = more stable
Details: c terminus: a fixed tail appended
For CKDFLCQFCAQRFGRKGHLTRHTK [D17G], the protein stability index was 1.67.
With CKDFLCQFCAQRFGRKLHLTRHTK [D17L] the protein stability index was 2.03.
CKDFLCQFCAQRFGRKNHLTRHTK [D17N] showed a protein stability index of 2.04.
CKDFLCQFCAQRFGRKPHLTRHTK [D17P] showed a protein stability index of 2.4.
For CKDFLCQFCAQRFGRKFHLTRHTK [D17F], the protein stability index was 2.08.
CKDFLCQFCAQRFGRKAHLTRHTK [D17A] gave a protein stability index of 2.28.
CKDFLCQFCAQRFGRKTHLTRHTK [D17T] gave a protein stability index of 2.44.
In the case of CKDFLCQFCAQRFGRKWHLTRHTK [D17W], the protein stability index is reported as 1.35.
CKDFLCQFCAQRFGRKSHLTRHTK [D17S] gave a protein stability index of 2.12.
Variant CKDFLCQFCAQRFGRKIHLTRHTK [D17I] has a protein stability index of 2.52.
CKDFLCQFCAQRFGRKCHLTRHTK [D17C] gave a protein stability index of 2.06.
In the case of CKDFLCQFCAQRFGRKKHLTRHTK [D17K], the protein stability index is reported as 1.94.
Variant CKDFLCQFCAQRFGRKYHLTRHTK [D17Y] has a protein stability index of 1.7.
For CKDFLCQFCAQRFGRKVHLTRHTK [D17V], the protein stability index was 1.64.
Variant CKDFLCQFCAQRFGRKRHLTRHTK [D17R] has a protein stability index of 2.37.
In the case of CKDFLCQFCAQRFGRKEHLTRHTK [D17E], the protein stability index is reported as 2.14.
CKDFLCQFCAQRFGRKHHLTRHTK [D17H] gave a protein stability index of 1.85.
CKDFLCQFCAQRFGRKQHLTRHTK [D17Q] gave a protein stability index of 1.92.
For CKDFLCQFCAQRFGRKMHLTRHTK [D17M], the protein stability index was 1.3.
With CKDFLCQFCAQRFCRKDHLTRHTK [G14C] the protein stability index was 2.37.
In the case of CKDFLCQFCAQRFRRKDHLTRHTK [G14R], the protein stability index is reported as 2.12.
Work on CKDFLCQFCAQRFSRKDHLTRHTK [G14S] yielded a protein stability index of 2.72.
For CKDFLCQFCAQRFWRKDHLTRHTK [G14W], the protein stability index was 1.77.
CKDFLCQFCAQRFLRKDHLTRHTK [G14L] showed a protein stability index of 1.96.
CKDFLCQFCAQRFYRKDHLTRHTK [G14Y] gave a protein stability index of 1.99.
Variant CKDFLCQFCAQRFTRKDHLTRHTK [G14T] has a protein stability index of 2.09.
CKDFLCQFCAQRFNRKDHLTRHTK [G14N] showed a protein stability index of 2.46.
Work on CKDFLCQFCAQRFFRKDHLTRHTK [G14F] yielded a protein stability index of 1.79.
With CKDFLCQFCAQRFDRKDHLTRHTK [G14D] the protein stability index was 2.14.
With CKDFLCQFCAQRFKRKDHLTRHTK [G14K] the protein stability index was 2.
CKDFLCQFCAQRFERKDHLTRHTK [G14E] showed a protein stability index of 2.78.
CKDFLCQFCAQRFHRKDHLTRHTK [G14H] showed a protein stability index of 2.13.
CKDFLCQFCAQRFPRKDHLTRHTK [G14P] gave a protein stability index of 2.46.
CKDFLCQFCAQRFVRKDHLTRHTK [G14V] showed a protein stability index of 1.99.
CKDFLCQFCAQRFMRKDHLTRHTK [G14M] showed a protein stability index of 2.59.
For CKDFLCQFCAQRFQRKDHLTRHTK [G14Q], the protein stability index was 1.98.
Variant CKDFLCQFCAQRFARKDHLTRHTK [G14A] has a protein stability index of 2.63.
For CKDFLCQFCAQRFIRKDHLTRHTK [G14I], the protein stability index was 2.08.
In the case of CKDFLCQFCAQVFGRKDHLTRHTK [R12V], the protein stability index is reported as 2.33.
In the case of CKDFLCQFCAQYFGRKDHLTRHTK [R12Y], the protein stability index is reported as 2.
CKDFLCQFCAQTFGRKDHLTRHTK [R12T] gave a protein stability index of 1.88.
For CKDFLCQFCAQWFGRKDHLTRHTK [R12W], the protein stability index was 2.14.
Variant CKDFLCQFCAQRCGRKDHLTRHTK [F13C] has a protein stability index of 3.07.
Work on CKDFLCQFCAQRRGRKDHLTRHTK [F13R] yielded a protein stability index of 2.54.
CKDFLCQFCAQRMGRKDHLTRHTK [F13M] showed a protein stability index of 2.88.
With CKDFLCQFCAQRLGRKDHLTRHTK [F13L] the protein stability index was 2.44.
CKDFLCQFCAQRIGRKDHLTRHTK [F13I] showed a protein stability index of 2.02.
Variant CKDFLCQFCAQRWGRKDHLTRHTK [F13W] has a protein stability index of 2.33.
With CKDFLCQFCAQRAGRKDHLTRHTK [F13A] the protein stability index was 1.91.
CKDFLCQFCAQRHGRKDHLTRHTK [F13H] showed a protein stability index of 2.31.
Variant CKDFLCQFCAQRKGRKDHLTRHTK [F13K] has a protein stability index of 3.02.
CKDFLCQFCAQRSGRKDHLTRHTK [F13S] showed a protein stability index of 3.21.
For CKDFLCQFCAQRPGRKDHLTRHTK [F13P], the protein stability index was 2.35.
CKDFLCQFCAQRVGRKDHLTRHTK [F13V] gave a protein stability index of 2.03.
With CKDFLCQFCAQRYGRKDHLTRHTK [F13Y] the protein stability index was 1.99.
Variant CKDFLCQFCAQRDGRKDHLTRHTK [F13D] has a protein stability index of 2.65.
Variant CKDFLCQFCAQREGRKDHLTRHTK [F13E] has a protein stability index of 2.86.
For CKDFLCQFCAQRTGRKDHLTRHTK [F13T], the protein stability index was 2.23.
With CKDFLCQFCAQRQGRKDHLTRHTK [F13Q] the protein stability index was 2.45.
With CKDFLCQFCAQRNGRKDHLTRHTK [F13N] the protein stability index was 2.35.
For CKDFLCQFCAQRFGRKDHLTKHTK [R21K], the protein stability index was 2.27.
CKDFLCQFCAQRFGRKDHLTNHTK [R21N] gave a protein stability index of 2.53.
CKDFLCQFCAQRFGRKDHLTEHTK [R21E] showed a protein stability index of 2.48.
Variant CKDFLCQFCAQRFGRKDHLTPHTK [R21P] has a protein stability index of 2.1.
CKDFLCQFCAQRFGRKDHLTQHTK [R21Q] showed a protein stability index of 2.56.
Work on CKDFLCQFCAQRFGRKDHLTVHTK [R21V] yielded a protein stability index of 1.59.
CKDFLCQFCAQRFGRKDHLTAHTK [R21A] gave a protein stability index of 1.94.
Variant CKDFLCQFCAQRFGRKDHLTIHTK [R21I] has a protein stability index of 1.82.
With CKDFLCQFCAQRFGRKDHLTGHTK [R21G] the protein stability index was 2.02.
CKDFLCQFCAQRFGRKDHLTHHTK [R21H] showed a protein stability index of 1.87.
CKDFLCQFCAQRFGRKDHLTSHTK [R21S] showed a protein stability index of 1.3.
With CKDFLCQFCAQRFGRKDHLTWHTK [R21W] the protein stability index was 2.16.
In the case of CKDFLCQFCAQRFGRKDHLTMHTK [R21M], the protein stability index is reported as 1.97.
Work on CKDFLCQFCAQRFGRKDHLTLHTK [R21L] yielded a protein stability index of 2.1.
In the case of CKDFLCQFCAQRFGRKDHLTCHTK [R21C], the protein stability index is reported as 2.01.
For CKDFLCQFCAQRFGRKDHLTYHTK [R21Y], the protein stability index was 1.85.
With CKDFLCQFCAQRFGRKDHLTDHTK [R21D] the protein stability index was 2.37.
Variant CKDFLCQFCAQRFGRKDHLTTHTK [R21T] has a protein stability index of 1.77.
Work on CKDFLCQFCAQRFGRKDYLTRHTK [H18Y] yielded a protein stability index of 2.45.
In the case of CKDFLCQFCAQRFGRKDQLTRHTK [H18Q], the protein stability index is reported as 1.96.
For CKDFLCQFCAQRFGRKDCLTRHTK [H18C], the protein stability index was 2.6.
CKDFLCQFCAQRFGRKDLLTRHTK [H18L] showed a protein stability index of 1.33.
With CKDFLCQFCAQRFGRKDRLTRHTK [H18R] the protein stability index was 2.35.
With CKDFLCQFCAQRFGRKDTLTRHTK [H18T] the protein stability index was 2.25.
For CKDFLCQFCAQRFGRKDDLTRHTK [H18D], the protein stability index was 1.68.
In the case of CKDFLCQFCAQRFGRKDKLTRHTK [H18K], the protein stability index is reported as 2.25.
With CKDFLCQFCAQRFGRKDILTRHTK [H18I] the protein stability index was 2.07.
Variant CKDFLCQFCAQRFGRKDSLTRHTK [H18S] has a protein stability index of 1.82.
Variant CKDFLCQFCAQRFGRKDNLTRHTK [H18N] has a protein stability index of 1.97.
For CKDFLCQFCAQRFGRKDELTRHTK [H18E], the protein stability index was 1.96.
CKDFLCQFCAQRFGRKDVLTRHTK [H18V] gave a protein stability index of 2.59.
In the case of CKDFLCQFCAQRFGRKDALTRHTK [H18A], the protein stability index is reported as 2.51.
Variant CKDFLCQFCAQRFGRKDPLTRHTK [H18P] has a protein stability index of 1.75.
With CKDFLCQFCAQRFGRKDMLTRHTK [H18M] the protein stability index was 1.64.
